What was measured:
[1] = system: Arabidopsis thaliana T1 plants; assay: Mesotrione tolerance of transgenic Arabidopsis thaliana T1 plants (spray, bleached leaf area grade, damage score); type: in vivo; set-up: Scores: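 damage score 0-100 computed as Σ(N×S)/(T×M)×100 over grades 0-3 with higher meaning more damage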; conditions: for Classification and statistics of the grade of pesticide damage Grade 0 / Classification and statistics of the grade of pesticide damage Grade 1 / Classification and statistics of the grade of pesticide damage Grade 2 / Classification and statistics of the grade of pesticide damage Grade 3: number of plants in grade
Method in brief: (§1)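 Damage graded 0–3 from the proportion of bleached leaf area 7 days after spraying. Plants were glufosinate-selected T1 lines, 18 days after sowing, plus vector and wild-type controls. Rates: mesotrione 52.5–420, isoxaflutole 35–280, topramezone 25–200 g ai/ha, with water (0×).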

[2] = system: Arabidopsis thaliana T1 plants; assay: Isoxaflutole tolerance of transgenic Arabidopsis thaliana T1 plants (spray, bleached leaf area grade, damage score); type: in vivo; conditions: for Classification and statistics of the grade of pesticide damage Grade 0 / Classification and statistics of the grade of pesticide damage Grade 1 / Classification and statistics of the grade of pesticide damage Grade 2 / Classification and statistics of the grade of pesticide damage Grade 3: number of plants in grade;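 for Scores: Weighted damage index from 0 to 100 where higher means more damage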
Method in brief: as §1

Molecule | Resistance evaluation ([1]; mesotrione 210 g ai/ha) | Scores ([1]; mesotrione 210 g ai/ha) | Classification and statistics of the grade of pesticide damage Grade 0 ([1]; mesotrione 210 g ai/ha) | Classification and statistics of the grade of pesticide damage Grade 1 ([1]; mesotrione 210 g ai/ha) | Classification and statistics of the grade of pesticide damage Grade 2 ([1]; mesotrione 210 g ai/ha) | Classification and statistics of the grade of pesticide damage Grade 3 ([1]; mesotrione 210 g ai/ha) | Resistance evaluation ([1]; mesotrione 420 g ai/ha) | Scores ([1]; mesotrione 420 g ai/ha) | Classification and statistics of the grade of pesticide damage Grade 0 ([1]; mesotrione 420 g ai/ha) | Classification and statistics of the grade of pesticide damage Grade 1 ([1]; mesotrione 420 g ai/ha) | Classification and statistics of the grade of pesticide damage Grade 2 ([1]; mesotrione 420 g ai/ha) | Classification and statistics of the grade of pesticide damage Grade 3 ([1]; mesotrione 420 g ai/ha) | Resistance evaluation ([2]; isoxaflutole 140 g ai/ha) | Scores ([2]; isoxaflutole 140 g ai/ha) | Classification and statistics of the grade of pesticide damage Grade 0 ([2]; isoxaflutole 140 g ai/ha) | Classification and statistics of the grade of pesticide damage Grade 1 ([2]; isoxaflutole 140 g ai/ha) | Classification and statistics of the grade of pesticide damage Grade 2 ([2]; isoxaflutole 140 g ai/ha) | Classification and statistics of the grade of pesticide damage Grade 3 ([2]; isoxaflutole 140 g ai/ha) | Resistance evaluation ([2]; isoxaflutole 280 g ai/ha) | Scores ([2]; isoxaflutole 280 g ai/ha) | further results
AsHPPDm-F383Y-02: nucleotide sequence encoding Avena sativa HPPD with F383Y; vector DBN11795 (nucleic acid, AsHPPDm-F383Y-02 Nucleotide Sequence, vector DBN11795) DNA: ATGCCACCTACTCCAGCTACAGCTACTGGTGCTGCTGCTGCTGCCGTTACTCCTGAGCACGCTGCCAGGTCATTCCCCAGGGTGGTTCGCGTGAACCCCAGATCTGATAGGTTCCCAGTTCTGAGCTTCCACCATGTTGAGCTGTGGTGCGCTGATGCTGCTTCTGCTGCTGGCAGGTTCTCTTTCGCTCTTGGTGCTCCACTCGCTGCTAGATCTGATCTGTCTACAGGAAATAGCGCTCATGCCTCACTCCTGCTTCGCTCAGGTGCTTTGGCCTTCCTCTTCACCGCTCCATATGCTCCCCCACCTCAGGAGGCTGCTACTGCTGCTGCTACAGCCTCCATTCCAAGCTTCTCAGCTGATGCCGCTAGAACCTTCGCTGCTGCTCATGGACTTGCCGTGAGGTCTGTTGGTGTTCGCGTGGCTGATGCTGCTGAGGCTTTCAGAGTTTCCGTTGCCGGCGGAGCTAGGCCAGCTTTCGCTCCTGCTGATTTGGGACATGGTTTCGGCCTGGCTGAGGTTGAGCTTTACGGTGACGTGGTTCTCCGCTTCGTGTCTTACCCAGATGAGACTGACCTGCCTTTCCTTCCCGGCTTCGAGAGAGTTTCCTCTCCTGGTGCCGTGGATTACGGCCTGACAAGGTTCGACCACGTGGTTGGAAACGTTCCCGAGATGGCTCCAGTGATCGATTACATGAAGGGCTTCCTTGGATTCCATGAGTTCGCCGAGTTCACTGCTGAGGACGTGGGAACCACTGAGTCCGGTTTGAACTCTGTGGTTCTCGCCAACAATTCTGAGGCTGTTTTGCTCCCTCTGAATGAGCCTGTGCATGGAACCAAGAGGAGAAGCCAGATTCAAACTTACCTGGAGTACCACGGTGGCCCTGGAGTTCAGCATATCGCCCTTGCTTCTAATGATGTGTTGCGCACACTCAGAGAGATGCGCGCCAGAACCCCCATGGGAGGTTTCGAGTTCATGGCCCCACCACAGGCTAAGTACTACGAGGGCGTTAGAAGGATTGCTGGAGACGTGTTGAGCGAGGAGCAGATCAAGGAGTGCCAAGAGCTGGGTGTTCTTGTGGATAGGGATGACCAGGGCGTTCTGCTTCAAATTTTCACTAAGCCAGTGGGCGACCGCCCTACATTCTATCTTGAGATGATTCAAAGAATCGGCTGCATGGAGAAGGATGAGGTTGGACAGGAGTACCAAAAGGGCGGATGCGGTGGCTTCGGAAAGGGTAACTTCAGCGAGTTGTTCAAGTCAATCGAGGACTACGAGAAGAGCCTCGAGGTGAAGCAGTCAGTGGTTGCCCAAAAGTCCTGA | Non-resistant | 100 | 0 | 0 | 0 | 16 | Non-resistant | 100 | 0 | 0 | 0 | 16 | Non-resistant | 100 | 0 | 0 | 0 | 16 | Non-resistant | 100 | Classification and statistics of the grade of pesticide damage Grade 0 ([2]; isoxaflutole 280 g ai/ha): 0; Classification and statistics of the grade of pesticide damage Grade 1 ([2]; isoxaflutole 280 g ai/ha): 0; Classification and statistics of the grade of pesticide damage Grade 2 ([2]; isoxaflutole 280 g ai/ha): 0; Classification and statistics of the grade of pesticide damage Grade 3 ([2]; isoxaflutole 280 g ai/ha): 16
AsHPPDm-F372A-F383Y-02: nucleotide sequence encoding Avena sativa HPPD with F372A+F383Y; vector DBN11796 (nucleic acid, AsHPPDm-F372A-F383Y-02 Nucleotide Sequence, vector DBN11796) DNA: ATGCCACCTACTCCAGCTACAGCTACTGGTGCTGCTGCTGCTGCCGTTACTCCTGAGCACGCTGCCAGGTCATTCCCCAGGGTGGTTCGCGTGAACCCCAGATCTGATAGGTTCCCAGTTCTGAGCTTCCACCATGTTGAGCTGTGGTGCGCTGATGCTGCTTCTGCTGCTGGCAGGTTCTCTTTCGCTCTTGGTGCTCCACTCGCTGCTAGATCTGATCTGTCTACAGGAAATAGCGCTCATGCCTCACTCCTGCTTCGCTCAGGTGCTTTGGCCTTCCTCTTCACCGCTCCATATGCTCCCCCACCTCAGGAGGCTGCTACTGCTGCTGCTACAGCCTCCATTCCAAGCTTCTCAGCTGATGCCGCTAGAACCTTCGCTGCTGCTCATGGACTTGCCGTGAGGTCTGTTGGTGTTCGCGTGGCTGATGCTGCTGAGGCTTTCAGAGTTTCCGTTGCCGGCGGAGCTAGGCCAGCTTTCGCTCCTGCTGATTTGGGACATGGTTTCGGCCTGGCTGAGGTTGAGCTTTACGGTGACGTGGTTCTCCGCTTCGTGTCTTACCCAGATGAGACTGACCTGCCTTTCCTTCCCGGCTTCGAGAGAGTTTCCTCTCCTGGTGCCGTGGATTACGGCCTGACAAGGTTCGACCACGTGGTTGGAAACGTTCCCGAGATGGCTCCAGTGATCGATTACATGAAGGGCTTCCTTGGATTCCATGAGTTCGCCGAGTTCACTGCTGAGGACGTGGGAACCACTGAGTCCGGTTTGAACTCTGTGGTTCTCGCCAACAATTCTGAGGCTGTTTTGCTCCCTCTGAATGAGCCTGTGCATGGAACCAAGAGGAGAAGCCAGATTCAAACTTACCTGGAGTACCACGGTGGCCCTGGAGTTCAGCATATCGCCCTTGCTTCTAATGATGTGTTGCGCACACTCAGAGAGATGCGCGCCAGAACCCCCATGGGAGGTTTCGAGTTCATGGCCCCACCACAGGCTAAGTACTACGAGGGCGTTAGAAGGATTGCTGGAGACGTGTTGAGCGAGGAGCAGATCAAGGAGTGCCAAGAGCTGGGTGTTCTTGTGGATAGGGATGACCAGGGCGTTCTGCTTCAAATTGCCACTAAGCCAGTGGGCGACCGCCCTACATTCTATCTTGAGATGATTCAAAGAATCGGCTGCATGGAGAAGGATGAGGTTGGACAGGAGTACCAAAAGGGCGGATGCGGTGGCTTCGGAAAGGGTAACTTCAGCGAGTTGTTCAAGTCAATCGAGGACTACGAGAAGAGCCTCGAGGTGAAGCAGTCAGTGGTTGCCCAAAAGTCCTGA | Moderately | 33 | 5 | 6 | 5 | 0 | Poorly resistant | 52 | 0 | 8 | 7 | 1 | Moderately | 33 | 5 | 6 | 5 | 0 | Poorly | 67 | Classification and statistics of the grade of pesticide damage Grade 0 ([2]; isoxaflutole 280 g ai/ha): 0; Classification and statistics of the grade of pesticide damage Grade 1 ([2]; isoxaflutole 280 g ai/ha): 0; Classification and statistics of the grade of pesticide damage Grade 2 ([2]; isoxaflutole 280 g ai/ha): 16; Classification and statistics of the grade of pesticide damage Grade 3 ([2]; isoxaflutole 280 g ai/ha): 0

— patent US20250043302A1, “MUTATED HYDROXYPHENYLPYRUVATE DIOXYGENASE POLYPEPTIDE, AND CODING GENE AND USE THEREOF” (BEIJING DABEINONG BIOTECHNOLOGY CO., LTD., priority 2021, published 2025)
